Assay results: paper PMC9375587

Assays:
[1] = molecular target: 2 CP-dimeric MPO complex (CP-MPO-MPO-CP) (human (endogenous in donor blood plasma) | human) (UniProt P00450); test: solid-phase enzyme assay
[2] = molecular target: Myeloperoxidase (MPO), native, dimeric (human) (UniProt P05164); test: SPR

Row | Substance | Kd [1] [nM] | Kd [2] [nM] | koff [2] [s⁻¹] | kon [2] [M⁻¹ s⁻¹]
1 | Alpha-thrombin (FIIa) (enzyme) | 46 | – | – | –
2 | Ceruloplasmin proteolyzed by thrombin (FIIa) (from UniProt P00450 501-906) (natural protein) | – | 327 | 0.422 | 12900
